Experimental data taken from US20210122785A1 (Bicycle, published 2021).
Starred links: 1 amine or outer side, 2 acyl side, 3 side chain; linkers in the order of their positions; H or OH if unused. Positions of bridges follow the written chain, without caps; N, C: chain ends. Non-standard residues stand in square brackets, D forms with d. No end group written: not given here. TBMB = c1c(C[*:1])cc(C[*:3])cc1C[*:2]; Dap(Me) = CNC[C@H](N)C(=O)O

T1: IL-17A (UniProt Q16552 24-155)
T1 construct: also called Interleukin-17
T1 sequence (looked up): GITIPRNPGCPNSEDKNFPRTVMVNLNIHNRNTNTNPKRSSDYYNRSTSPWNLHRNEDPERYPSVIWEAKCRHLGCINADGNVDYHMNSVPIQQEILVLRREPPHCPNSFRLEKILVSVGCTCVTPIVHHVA

T2: hIL17-F (human, UniProt Q96PD4 31-163)
T2 construct: also called human IL-17F
T2 sequence (looked up): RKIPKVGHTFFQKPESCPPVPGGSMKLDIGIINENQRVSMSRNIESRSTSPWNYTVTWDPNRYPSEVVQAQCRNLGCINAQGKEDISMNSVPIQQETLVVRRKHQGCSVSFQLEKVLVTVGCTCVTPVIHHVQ

T3: hIL17-A (human, UniProt Q16552 24-155)
T3 construct: also called human IL-17A
T3 sequence (looked up): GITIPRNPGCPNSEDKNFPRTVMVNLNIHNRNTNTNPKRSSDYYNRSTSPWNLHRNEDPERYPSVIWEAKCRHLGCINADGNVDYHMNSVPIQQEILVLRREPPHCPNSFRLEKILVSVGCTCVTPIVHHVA


Columns and labels:
IL-17A [1] = target: T1, IL-17A; assay: IL-17A binding assay, method analogous to WO 2011/141823; replicate n2
IL-17A [2] = target: T1, IL-17A; assay: IL-17A binding assay, method analogous to WO 2011/141823; replicate n1
IL-17A [3] = target: T1, IL-17A; assay: IL-17A binding assay, method analogous to WO 2011/141823; mean of n1 and n2
hIL17-F = target: T2, hIL17-F; assay: IL-17 binding assay (Kd), as described in GB1720932.1
hIL17-A = target: T3, hIL17-A; assay: as above

Binder | Ki (IL-17A [1]) | Ki (IL-17A [2]) | Ki (IL-17A [3]) | Kd (hIL17-F) | Kd (hIL17-A)
Ac-A[Dap(Me)]PQDLELCTFLFGD[Dap(Me)]A (linker 2-9-16 via TBMB, Bicyclic peptide on a TBMB scaffold; first and third cysteines of BCY00008655 replaced by Dap(Me); also called Ac-(28-06)(TBMB) Cys13Dap(Me)) [BCY00008653] | 85.9 nM | 173 nM | 129 nM |  | 
Ac-ACPQDLELCTFLFGDCA (linker 2-9-16 via TBMB, Bicyclic peptide on a TBMB scaffold; also called Ac-(28-06)(TBMB)) [BCY00008655] | 107 nM | 78.8 nM | 93 nM |  | 
Ac-ACPQDLEL[Dap(Me)]TFLFGDCA (linker 2-9-16 via TBMB, Bicyclic peptide on a TBMB scaffold; second cysteine of BCY00008655 replaced by Dap(Me); also called Ac-(28-06)(TBMB) Cys2Dap(Me)) [BCY00008649] | 59.6 nM | 60.8 nM | 60.2 nM |  | 
Ac-A[Dap(Me)]PQDLELCTFLFGDCA (linker 2-9-16 via TBMB, Bicyclic peptide on a TBMB scaffold; first cysteine of BCY00008655 replaced by Dap(Me); also called Ac-(28-06)(TBMB) Cys1Dap(Me)) [BCY00008648] | 105 nM | 127 nM | 116 nM |  | 
Ac-A[Dap(Me)]PQDLEL[Dap(Me)]TFLFGDCA (linker 2-9-16 via TBMB, Bicyclic peptide on a TBMB scaffold; first and second cysteines of BCY00008655 replaced by Dap(Me); also called Ac-(28-06)(TBMB) Cys12Dap(Me)) [BCY00008651] | 231 nM | 298 nM | 264 nM |  | 
Ac-A[Dap(Me)]PQDLEL[Dap(Me)]TFLFGD[Dap(Me)]A (linker 2-9-16 via TBMB, Bicyclic peptide on a TBMB scaffold; all three cysteines of BCY00008655 replaced by Dap(Me); also called Ac-(28-06)(TBMB) Cys123Dap(Me)) [BCY00008654] | 89.3 nM | 100 nM | 94.7 nM |  | 

The remaining lines, values ahead:

Ki (IL-17A [1]) | Ki (IL-17A [2]) | Ki (IL-17A [3]) | Kd (hIL17-F) | Kd (hIL17-A) | Binder
 |  |  | 392 nM |  | ACLWKDNCTHWSLCA (linker 2-8-14 via TBMB) [Reference Example A6, A-CLWKDNCTHWSLC-A]
 |  |  |  | 398 nM | CPENELYCFLSSQQC (linker 1-8-15 via TBMB) [Reference Example A2, CPENELYCFLSSQQC]
 |  |  | 198 nM |  | ACGYDYYCALYDICA (linker 2-8-14 via TBMB) [Reference Example A5, A-…-A]
